Experimental data reported in paper PMC10139940.

Biological target: Active site-blocked human EGR-bound FIXa (human) (UniProt P00740)
Assay: SPR

Sequence of UniProt P00740 (P00740 47-191, chain 1 of 2): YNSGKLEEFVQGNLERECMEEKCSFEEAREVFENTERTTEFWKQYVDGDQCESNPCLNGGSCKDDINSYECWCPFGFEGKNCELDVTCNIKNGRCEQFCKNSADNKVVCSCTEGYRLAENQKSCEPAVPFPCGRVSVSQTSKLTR
Sequence of UniProt P00740 (P00740 227-461, chain 2 of 2): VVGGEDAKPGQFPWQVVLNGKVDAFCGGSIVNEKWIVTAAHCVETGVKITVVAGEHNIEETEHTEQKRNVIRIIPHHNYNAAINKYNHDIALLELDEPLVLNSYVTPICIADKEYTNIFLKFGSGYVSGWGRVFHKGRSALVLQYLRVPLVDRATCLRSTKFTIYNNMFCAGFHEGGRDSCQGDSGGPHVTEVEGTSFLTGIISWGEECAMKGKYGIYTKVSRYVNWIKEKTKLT

Row | Kd | Substance
1 | 4.7 nM | B domain-deleted FVIII double mutant K1813A/K1818A (natural protein)
2 | 3.9 nM | B domain-deleted FVIII mutant K1813A (natural protein)
3 | 5.1 nM | B domain-deleted FVIII mutant K1818A (natural protein)
4 | 6.3 nM | B domain-deleted WT-FVIII lacking Q744-S1637 (natural protein)
